The chains are these.
B1: TSPAN10 (parent)
chain: EGCGPPLRRWLRANLAASGGYAIA

This passage reports protein stability index results from the supplement of paper PMC10567573.
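Further: lentivirally expressed fusions sorted by FACS into six bins by GFP to DsRed ratio, PSI derived from sequencing read proportions per bin multiplied by bin number.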

The variants in this data set derive from B1. In words: protein stability index of a GFP-peptide fusion (GPS, HEK-293T) (PSI 1-6); higher = more stable. The note with it: c terminus: a fixed tail appended.
For the variant EGCGPPLRRWLRANLAASGGMAIA, the protein stability index was 2.17.

Turning to EGCGPPLRRWLRANLAASGGQAIA, the protein stability index came to 2.75.

Turning to EGCGPPLRRWLRANLAASGGLAIA, the protein stability index amounted to 2.11.

With EGCGPPLRRWLRANLAASGGFAIA, the protein stability index was found to be 1.85.

As for EGCGPPLRRWLRANLAASGGGAIA, the protein stability index came to 2.11.

Consider EGCGPPLRRWLRANLAASGGAAIA, for which the protein stability index amounted to 2.65.

In the case of EGCGPPLRRWLRANLAASGGKAIA, the protein stability index came to 3.04.

On to EGCGPPLRRWLRANLAASGGPAIA, for which the protein stability index is 2.07.

Regarding EGCGPPLRRWLRANLAASGGTAIA, the protein stability index was determined as 2.53.

Consider EGCGPPLRRWLRANLAASGGDAIA, for which the protein stability index came out at 2.61.

Take EGCGPPLRRWLRANLAASGGWAIA: the protein stability index was determined as 1.47.

On to EGCGPPLRRWLRANLAASGGVAIA, for which the protein stability index was determined as 2.53.

With EGCGPPLRRWLRANLAASGGEAIA, the protein stability index worked out at 2.4.

As to EGCGPPLRRWLRANLAASGGSAIA, the protein stability index was determined as 2.7.

Consider EGCGPPLRRWLRANLAASGGRAIA, for which the protein stability index was found to be 2.3.

Consider EGCGPPLRRWLRANLAASGGHAIA, for which the protein stability index stood at 2.39.

Regarding EGCGPPLRRWLRANLAASGGNAIA, the protein stability index came to 2.61.

For EGCGPPLRRWLRANLAASGGIAIA, the protein stability index amounted to 1.81.

Take EGCGPPLRRWLRANLAASGGCAIA: the protein stability index came out at 2.36.

For EGCGPPLRRWLRANLAASGCYAIA, the protein stability index came to 1.56.

Take EGCGPPLRRWLRANLAASGAYAIA: the protein stability index came to 1.94.

As for EGCGPPLRRWLRANLAASGPYAIA, the protein stability index was determined as 2.

With EGCGPPLRRWLRANLAASGRYAIA, the protein stability index worked out at 1.48.

For the variant EGCGPPLRRWLRANLAASGEYAIA, the protein stability index amounted to 2.33.

On to EGCGPPLRRWLRANLAASGSYAIA, for which the protein stability index was found to be 2.17.

In the case of EGCGPPLRRWLRANLAASGKYAIA, the protein stability index was 2.77.

EGCGPPLRRWLRANLAASGLYAIA: the protein stability index was determined as 1.96.

EGCGPPLRRWLRANLAASGNYAIA: the protein stability index was 3.44.

For the variant EGCGPPLRRWLRANLAASGMYAIA, the protein stability index was determined as 1.84.

With EGCGPPLRRWLRANLAASGYYAIA, the protein stability index stood at 1.66.

For EGCGPPLRRWLRANLAASGTYAIA, the protein stability index came out at 1.63.

With EGCGPPLRRWLRANLAASGFYAIA, the protein stability index stood at 1.96.

On to EGCGPPLRRWLRANLAASGIYAIA, for which the protein stability index is 1.49.

Turning to EGCGPPLRRWLRANLAASGHYAIA, the protein stability index was determined as 2.03.

Regarding EGCGPPLRRWLRANLAASGVYAIA, the protein stability index came to 2.21.

Take EGCGPPLRRWLRANLAASGQYAIA: the protein stability index was determined as 2.53.

EGCGPPLRRWLRANLAASGWYAIA: the protein stability index came to 1.84.

In the case of EGCGPPLRRWLRANLAASGDYAIA, the protein stability index came to 2.25.

EGCGPPLRRWLRANLAASGGYLIA: the protein stability index was 2.06.

On to EGCGPPLRRWLRANLAASGGYEIA, for which the protein stability index was determined as 2.28.

Regarding EGCGPPLRRWLRANLAASGGYIIA, the protein stability index came to 1.03.

As for EGCGPPLRRWLRANLAASGGYDIA, the protein stability index turned out to be 2.46.

For EGCGPPLRRWLRANLAASGGYVIA, the protein stability index came out at 2.8.

With EGCGPPLRRWLRANLAASGGYQIA, the protein stability index came to 1.63.

For EGCGPPLRRWLRANLAASGGYMIA, the protein stability index is 1.62.

Regarding EGCGPPLRRWLRANLAASGGYHIA, the protein stability index was 2.23.

In the case of EGCGPPLRRWLRANLAASGGYKIA, the protein stability index was determined as 1.75.

Consider EGCGPPLRRWLRANLAASGGYPIA, for which the protein stability index stood at 1.93.

As for EGCGPPLRRWLRANLAASGGYYIA, the protein stability index worked out at 2.04.

Consider EGCGPPLRRWLRANLAASGGYGIA, for which the protein stability index was 1.96.

For EGCGPPLRRWLRANLAASGGYTIA, the protein stability index was 1.7.

For EGCGPPLRRWLRANLAASGGYCIA, the protein stability index was determined as 1.38.

Consider EGCGPPLRRWLRANLAASGGYRIA, for which the protein stability index came to 1.68.

In the case of EGCGPPLRRWLRANLAASGGYNIA, the protein stability index was found to be 2.43.

As for EGCGPPLRRWLRANLAASGGYSIA, the protein stability index came out at 1.93.

As for EGCGPPLRRWLRANLAASGGYWIA, the protein stability index was 2.18.

Take EGCGPPLRRWLRANLAASGGYALA: the protein stability index was determined as 2.16.

Turning to EGCGPPLRRWLRANLAASGGYAEA, the protein stability index came out at 2.34.

Regarding EGCGPPLRRWLRANLAASGGYAGA, the protein stability index was 2.3.

On to EGCGPPLRRWLRANLAASGGYAHA, for which the protein stability index was determined as 1.96.

Turning to EGCGPPLRRWLRANLAASGGYAFA, the protein stability index worked out at 2.17.

Turning to EGCGPPLRRWLRANLAASGGYAKA, the protein stability index was 2.96.

Consider EGCGPPLRRWLRANLAASGGYACA, for which the protein stability index stood at 2.15.

Take EGCGPPLRRWLRANLAASGGYANA: the protein stability index amounted to 2.92.

As for EGCGPPLRRWLRANLAASGGYAMA, the protein stability index was 1.21.

Consider EGCGPPLRRWLRANLAASGGYADA, for which the protein stability index worked out at 2.35.

For the variant EGCGPPLRRWLRANLAASPGYAIA, the protein stability index worked out at 2.13.

Consider EGCGPPLRRWLRANLAASTGYAIA, for which the protein stability index was determined as 1.74.

For EGCGPPLRRWLRANLAASLGYAIA, the protein stability index came out at 2.17.

For EGCGPPLRRWLRANLAASQGYAIA, the protein stability index is 1.43.

Take EGCGPPLRRWLRANLAASVGYAIA: the protein stability index is 1.67.

For EGCGPPLRRWLRANLAASDGYAIA, the protein stability index was 2.11.

For the variant EGCGPPLRRWLRANLAASIGYAIA, the protein stability index came to 1.93.

For EGCGPPLRRWLRANLAASEGYAIA, the protein stability index stood at 1.84.

Regarding EGCGPPLRRWLRANLAASWGYAIA, the protein stability index is 3.26.

With EGCGPPLRRWLRANLAASFGYAIA, the protein stability index amounted to 1.79.

With EGCGPPLRRWLRANLAASMGYAIA, the protein stability index amounted to 1.24.

Regarding EGCGPPLRRWLRANLAASSGYAIA, the protein stability index came out at 2.58.

With EGCGPPLRRWLRANLAASKGYAIA, the protein stability index stood at 1.89.

Regarding EGCGPPLRRWLRANLAASCGYAIA, the protein stability index came out at 1.46.

In the case of EGCGPPLRRWLRANLAASYGYAIA, the protein stability index worked out at 1.93.

EGCGPPLRRWLRANLAASHGYAIA: the protein stability index was 2.32.

Turning to EGCGPPLRRWLRANLAASAGYAIA, the protein stability index amounted to 1.11.

As for EGCGPPLRRWLRANLAASRGYAIA, the protein stability index was determined as 2.33.

On to EGCGPPLRRWLRANLAASNGYAIA, for which the protein stability index stood at 2.13.

In the case of EGCGPPLRRWLRANLAAVGGYAIA, the protein stability index turned out to be 2.16.

Consider EGCGPPLRRWLRANLAAQGGYAIA, for which the protein stability index stood at 2.04.

Consider EGCGPPLRRWLRANLAAWGGYAIA, for which the protein stability index turned out to be 2.06.

Take EGCGPPLRRWLRANLAARGGYAIA: the protein stability index is 1.8.

For the variant EGCGPPLRRWLRANLAANGGYAIA, the protein stability index was 2.01.

Consider EGCGPPLRRWLRANLAAPGGYAIA, for which the protein stability index stood at 2.28.

In the case of EGCGPPLRRWLRANLAATGGYAIA, the protein stability index was 2.34.

Take EGCGPPLRRWLRANLAAMGGYAIA: the protein stability index was 1.6.

Take EGCGPPLRRWLRANLAAYGGYAIA: the protein stability index was found to be 1.4.
